Assay: melting temperature; melt of duplexes
Conditions: sodium 0.0675 M; strand 1 µM
“CGACGTGCTTGATGTGCTG+CAGCACATGGCGCACGTCG ((((((((...((((((((+))))))))...))))))))” showed a Tm of 47.2 °C. Work on “CGACGTGCGATATGTGCTG+CAGCACATTAGGCACGTCG ((((((((...((((((((+))))))))...))))))))” yielded a Tm of 50.8 °C. For “CGACGTGCGCTATGTGCTG+CAGCACATGGGGCACGTCG ((((((((.(.((((((((+)))))))).).))))))))”, the Tm was 56.7 °C. Substance “CGACGTGCGATATGTGCTG+CAGCACATTCAGCACGTCG ((((((((...((((((((+))))))))...))))))))” has a Tm of 52.8 °C. With “CGACGTGCCTTATGTGCTG+CAGCACATGGGGCACGTCG (((((((((..((((((((+))))))))..)))))))))” the Tm was 56.1 °C. “CGACGTGCACCATGTGCTG+CAGCACATTGCGCACGTCG ((((((((.(.((((((((+)))))))).).))))))))” showed a Tm of 46.9 °C. With “CGACGTGCCCTATGTGCTG+CAGCACATCACGCACGTCG ((((((((...((((((((+))))))))...))))))))” the Tm was 46.4 °C. “CGACGTGCGCAATGTGCTG+CAGCACATTTGGCACGTCG ((((((((..(((((((((+)))))))))..))))))))” showed a Tm of 52.5 °C. “CGACGTGCCAGATGTGCTG+CAGCACATTCGGCACGTCG (((((((((..((((((((+))))))))..)))))))))” showed a Tm of 56.2 °C. “CGACGTGCCGAATGTGCTG+CAGCACATTTGGCACGTCG (((((((((.(((((((((+))))))))).)))))))))” showed a Tm of 60.6 °C. With “CGACGTGCGTCATGTGCTG+CAGCACATGGAGCACGTCG ((((((((..(((((((((+)))))))))..))))))))” the Tm was 58.4 °C. “CGACGTGCTCGATGTGCTG+CAGCACATCCGGCACGTCG ((((((((..(((((((((+)))))))))..))))))))” gave a Tm of 53.7 °C. “CGACGTGCATAATGTGCTG+CAGCACATCAAGCACGTCG ((((((((.(.((((((((+)))))))).).))))))))” showed a Tm of 48.4 °C. In the case of “CGACGTGCTGAATGTGCTG+CAGCACATCTGGCACGTCG ((((((((...((((((((+))))))))...))))))))”, the Tm is reported as 51.7 °C. Work on “CGACGTGCTGCATGTGCTG+CAGCACATTTAGCACGTCG (((((((((..((((((((+))))))))..)))))))))” yielded a Tm of 51 °C. For “CGACGTGCAATATGTGCTG+CAGCACATGTCGCACGTCG ((((((((.(.((((((((+)))))))).).))))))))”, the Tm was 51.5 °C. For “CGACGTGCGGTATGTGCTG+CAGCACATAGAGCACGTCG ((((((((..(((((((((+)))))))))..))))))))”, the Tm was 56 °C. For “CGACGTGCACAATGTGCTG+CAGCACATAACGCACGTCG ((((((((...((((((((+))))))))...))))))))”, the Tm was 45.3 °C. With “CGACGTGCCGTATGTGCTG+CAGCACATCAGGCACGTCG (((((((((..((((((((+))))))))..)))))))))” the Tm was 57.1 °C. “CGACGTGCAAGATGTGCTG+CAGCACATGTGGCACGTCG ((((((((.(.((((((((+)))))))).).))))))))” showed a Tm of 52.8 °C. For “CGACGTGCCATATGTGCTG+CAGCACATGTTGCACGTCG ((((((((.(.((((((((+)))))))).).))))))))”, the Tm was 50.8 °C. Substance “CGACGTGCGTGATGTGCTG+CAGCACATGTTGCACGTCG ((((((((...((((((((+))))))))...))))))))” has a Tm of 50 °C. For “CGACGTGCGAGATGTGCTG+CAGCACATCTAGCACGTCG ((((((((.((((((((((+)))))))))).))))))))”, the Tm was 59.7 °C. In the case of “CGACGTGCGTGATGTGCTG+CAGCACATCGAGCACGTCG ((((((((..(((((((((+)))))))))..))))))))”, the Tm is reported as 58.6 °C. In the case of “CGACGTGCGGCATGTGCTG+CAGCACATAATGCACGTCG ((((((((...((((((((+))))))))...))))))))”, the Tm is reported as 51.1 °C. Work on “CGACGTGCCCAATGTGCTG+CAGCACATCGGGCACGTCG ((((((((((.((((((((+)))))))).))))))))))” yielded a Tm of 58.9 °C. Work on “CGACGTGCAGTATGTGCTG+CAGCACATCATGCACGTCG (((((((((..((((((((+))))))))..)))))))))” yielded a Tm of 51.4 °C. Work on “CGACGTGCTAGATGTGCTG+CAGCACATATCGCACGTCG ((((((((.(.((((((((+)))))))).).))))))))” yielded a Tm of 51 °C. “CGACGTGCTCCATGTGCTG+CAGCACATGCTGCACGTCG ((((((((..(((((((((+)))))))))..))))))))” gave a Tm of 50.8 °C. For “CGACGTGCATAATGTGCTG+CAGCACATTTCGCACGTCG ((((((((..(((((((((+)))))))))..))))))))”, the Tm was 51 °C. “CGACGTGCACGATGTGCTG+CAGCACATCCAGCACGTCG ((((((((..(((((((((+)))))))))..))))))))” gave a Tm of 50.6 °C. Substance “CGACGTGCCTGATGTGCTG+CAGCACATACTGCACGTCG ((((((((...((((((((+))))))))...))))))))” has a Tm of 48.4 °C. With “CGACGTGCTTAATGTGCTG+CAGCACATCAGGCACGTCG ((((((((.(.((((((((+)))))))).).))))))))” the Tm was 50.8 °C. “CGACGTGCGGTATGTGCTG+CAGCACATATGGCACGTCG ((((((((..(((((((((+)))))))))..))))))))” gave a Tm of 54 °C. Work on “CGACGTGCGTTATGTGCTG+CAGCACATTAGGCACGTCG ((((((((.(.((((((((+)))))))).).))))))))” yielded a Tm of 52.2 °C. Substance “CGACGTGCACTATGTGCTG+CAGCACATGACGCACGTCG ((((((((...((((((((+))))))))...))))))))” has a Tm of 44.6 °C.
